Assay results reported in the nanobody polyreactivity screen of Harvey et al. (2022).

Test: yeast display, Sf9 membrane polyspecificity reagent, FACS + sequencing; frameworks hold sequencing errors
Summary of the method: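 A nanobody's polyreactivity label depends on the gate it was sorted from. Yeast display cells were stained with 10% biotinylated, detergent-solubilized Sf9 membrane reagent for 1 hour at 4 °C, enriched on streptavidin microbeads and sorted by FACS. The low and high (top ~1%) gates were set on anti-HA fluorescence for expression and streptavidin fluorescence for reagent binding.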

Sequence | polyreactivity (PSR sort gate)
QVQLVESGGGLVQAGGSLRISCAASGFIFWYYTMGRYIQAPGKERELVAAINSGGSTNYADSVKGRFTISRDNAKNTVYLQMNSLKPEDTAVYYCAALVCYSGELFYYWGQGTQVTVSS | low polyreactivity
QVQLVESGGGLVQAGGSLRISCAASGFIFYGNAMGWYIQAPGKERELVASITGGGRTYYADSVKGRFTISRDNAKNTVYLQMNSLKPEDTAVYYCATLLAYRLGSGYDSWGQGTQVTVSS | high polyreactivity
QVQLVESGGGLVQAGGSLRISCAASGFIFYWNAMGWYRQAPGKERELVAGITSGGDTNYADSVKGRFTISRDNAKNTVYLQINSLKPEDTAVYYCAAEGFRGYGYWGQGTQVTVSS | low polyreactivity
QVQLVESGGGLVQAGGSLRISCAASGFTFPSYAMGWYRQAAGKERELVAAINRRGGSTNYADSVKGRFTISRDNAKNTDYLQMNSLKPEDTAVYYCAKQPRLGKYEYYYWGQGTQVTVSS | high polyreactivity
QVQLVESGGGLVQAGGSLRISCAASGFTFSAYAMGWYRQAPGKERELVAAISGSGGRTYYADSVKGRFTISRDNAKNTVYLQMNSLKPEDTAVYYCATSTAGGRETVSQYRYYWGHGTQVTVSS | high polyreactivity
QVQLVESGGGLVQAGGSLRISCAASGFTFVYNTMGWYRQAPGKERELVAAITSRGGSTYYADSVKGRFTISRDNAKNTVYLQMYSLKPEDTAVYYCAAKISVRTSGTRYYYWGQGTQVTVSS | high polyreactivity
QVQLVESGGGLVQAGGSLRISCAASGFTFWYYVMGWYRQAPGKERELVAAISSGGSTYYADSVKGRFTISRDNAKNTVYLQINSLKPEDTAVYYCAASYRSATRQFDYWGQGTQVTVSS | low polyreactivity
QVQLVESGGGLVQAGGSLRISCAASGFTFYRYAMGWYRQAPGKERELVAAISSDGTTYNADSVKGRFTISRDNAKNTVYLQINSLKPEDNAVYYCAKRGYYRSRRYDYWGQGTQVNVSS | high polyreactivity
QVQLVESGGGLVQAGGSLRISCAASGFTFYRYAMGWYRQAPGKESELVAAITRSGRTYYADSVKGRFTISRDNAKNTFYLQMNSLKPEDTAVYYCYADWGLGTQVTVSS | high polyreactivity
QVQLVESGGGLVQAGGSLRISCAASGGIFRYVMGWYRQAPGKERELVATISGRGGSTYYADSVKGRFTISRDNAKNTVYLQMNSLKPEDTAVYYCATHSWRRAGYEYWGQGTQVTVSS | high polyreactivity
QVQLVESGGGLVQAGGSLRISCAASGGIIQYYDMGWYRQAPGKEREFVATISQRGGITYYADSVKGRFTISRDNAKNTVYLQMNSLKPEDTAVYYCAARSYYAVYYWGQGTQVTVSS | high polyreactivity
QVQLVESGGGLVQAGGSLRISCAASGIIFRLNAMGWYRQAPGKERELVAAIRRRGGSTYNADSVKGRFTISRHNAKNTVYLQMNSLKPEDTAVYYGAKDPHGSDFGYWGQGTQVTVSS | low polyreactivity
QVQLVESGGGLVQAGGSLRISCAASGIIFRYYAMGWYRQAPGKERELVARISSGGSTKYADSVKGRYTISRDNAKNTVYLQMNSLKPEDTAVYYCAAEYYSLRYAIFYYWGQGTQVTVSS | high polyreactivity
QVQLVESGGGLVQAGGSLRISCAASGIIFYLYTMGWYRQAPGKERELVAAITRGGSTYYADSVKGRFTISRDNAKNTVYLQMNSLKPEDTAVYYCAAKHGPGYRRWYDYWGQGTQVTVSS | high polyreactivity
QVQLVESGGGLVQAGGSLRISCAASGITFPWYAMGWYRQAPGKERELVAAINRAGNTNYADSVKGRFTISRDNAKNTVYLQMNSLKPEDTSVYYCAARWRYKYTLGYWGQGTQVTVSS | high polyreactivity
QVQLVESGGGLVQAGGSLRISCAASGITFRRYGMGWYRQAPGKERELVATITSSVGSRTYYADSVKGRFTISRDNAKNTVYLQMNSLKPEDTAVYYCAADHRVYDSEYWGQGTQVTVSS | low polyreactivity
QVQLVESGGGLVQAGGSLRISCAASGITFSENDMGWYRQAPGKERELDAAISSGDGTNYADSVKGRFTISRDNEKNTVYLQMNSLKPEDTAVYYCNADGFVDWAWSEQYIPNIHLDYWGQGTQVTVSS | low polyreactivity
QVQLVESGGGLVQAGGSLRISCAASGITFTSYAMGWYRQAPGKERELVAAISSSGVRTYYADSVKGRFTISRDNAKNTVYLQLNSLKPEDTAVYYCATRRRVLDGYDYGGQGTQVTVSS | high polyreactivity
QVQLVESGGGLVQAGGSLRISCAASGLIFADYTMGWYRQAPGKERDLVAVITDGDSTYYADSVKGRFTISRDNAKNTVYLQMNSLKPEDTAVYYCAAELDGSNYTLDYWGQGTQVTVST | low polyreactivity
QVQLVESGGGLVQAGGSLRISCAASGLTFYRYAMGWYRQAPGKERELVAAIRVSGNTYYADSVKGRFTISRDNAKNTVYLEMNSLKPEDTAVYYFAAKPYYFYGMDYWGQGTQVTVSS | high polyreactivity
QVQLVESGGGLVQAGGSLRISCAASGLTFYVYAMGWYRPAPGKERELVAAISGRGGRTYYADSVKGRFTISRDNAKNTVYLQMNSMKPEDTAVYYCAARYPRYRYVEYGYNYWGQGTQVTLSS | high polyreactivity
QVQLVESGGGLVQAGGSLRISCAASGNIFDIYAMGWYRQAPGKERELVAAITSGVRTYYADSVKGRFTISRDNAKNTVYLQMNSLKPEDTSVYYCNAVWRRSHAYGYWGQGTQVTVSS | low polyreactivity

Sequence | polyreactivity (PSR sort gate)
QVQLVESGGGLVQAGGSLRISCAASGNIFDRYAMGWYRQAPGKEMELVAGITWSGGSTYYADSVKGRFTISRDNAKNTVYLQMNSLKPEDTAVYYCAKDPHGSDFGYWGQGTQVTVSS | low polyreactivity
QVQLVESGGGLVQAGGSLRISCAASGNIFGVYAMGWYRQAPGKERELVATITTGGSTYYADSVKGRFTISRDNAKNTVYLQMNSLKPEDTAVYYCAADVGGGNYVYYGNDYDDGYWGQGTQVTVSS | low polyreactivity
QVQLVESGGGLVQAGGSLRISCAASGRIFGDNGMGWYSQAPGKERELVTYADSVKGRFTISRDNAKNTVYLQMNSLKPEDTAVYYCYKDPPRFSGLDENYWGQGSQVTVSS | low polyreactivity
QVQLVESGGGLVQAGGSLRISCAASGRIFGINSMGWYRQAPAKERELVAAMSRGGTTNYADSVKGRFTISRDNAKNTVYLQMNSLKPEDTAVYYCNAVGFYAPNTFDYWGQGTQVTVSS | high polyreactivity
QVQLVESGGGLVQAGGSLRISCAASGRIFRVYAMGWYRQAPGKERELVAAISYSGGRTFYADSVKGRFTNSRDNAKNTVYLQMNSLKPEDTAVYYCAATSYSTQALPPFDYWGQGTQVTVSS | low polyreactivity
QVQLVESGGGLVQAGGSLRISCAASGRTFGPNAMGWYIKAPGKERELVAAIRYSGGSTYYADSVKGRFTISRDKAKNTVYLQMNSLKPEDTAVYYCAADYVSYVGERGTLYVRYDYWGQGTQVTVSS | high polyreactivity
QVQLVESGGGLVQAGGSLRISCAASGRTFGPYAMGWYIQAPGKEREFVAAISYSGGSTYYADSVKGRFTISRDNAKNTVYLQMNSLKPEDTAVYYCAVDIDSNSGTRDYWGQGTQVTVSS | low polyreactivity
QVQLVESGGGLVQAGGSLRISCAASGRTFRRYEMGWYREAPGKERELVASISSSAGSTYYADSVKGRFTISRDNAKNTVYFQMNSLKPEDTAVYYCAFVPTVYARSRYGYWGQGTQVTVSS | high polyreactivity
QVQLVESGGGLVQAGGSLRISCAASGRTFYDNTMGWYRQAPGKERELVAAINWSGTRTYYADSVKARFTISRDNAKNTVYLQMNSLKPEDTAVYYCAADGPFRRTYGYWGLGTQVTVSS | low polyreactivity
QVQLVESGGGLVQAGGSLRISCAASGRTVAIYAMGWYIKAPGKEREFVAAISWSGGDTYYADSVKGRFTISRDNAKNTVYLQMNSLKPVDPAVYYCAARDNDYEGRDLQYELDYWGQGTQVTVSS | low polyreactivity
QVQLVESGGGLVQAGGSLRISCAASGRTVWNTLGWYRQAPGKERELVAAISYSGGTTYYADSVKGRFTISRDNAKNTVYLQMNSLNPEDTAVYYCAAVRVLRGVKYNYWGQGTEVTVSS | high polyreactivity
QVQLVESGGGLVQAGGSLRISCAASGSIFASNTMGWYRQARGTERELVAGITKIGSSTYYADSVTGRFTISRDNAKNTVYLKMNSLKPEDTAVYYCNAYGPNIYSSRYDYWGQGTQVTVSS | low polyreactivity
QVQLVESGGGLVQAGGSLRISCAASGSIFDYYAMGWYIQAPGKERELVAAISWSGGSTYYADSVKGRFTISRDNAKNTVYLQMNSLKPVDTAVYYCAAEYYGGEFDYWGQGTQVTVSS | low polyreactivity
QVQLVESGGGLVQAGGSLRISCAASGSIFGYYAMGWYRQAPGKERELVAVITWNTGNTYYADSVKGRFTISRDNAKNTVYLQMNSLKPEDNAVYYCAADQTGWGDTYDYWGQGTQVTVSS | low polyreactivity
QVQLVESGGGLVQAGGSLRISCAASGSIFLYNDMGWYRQAPGKERELVAAITSTGNTNYADSVKGRFTISRDNAKNTVYLQMNSLNRKRPRSITALNVSCTSVVVGYDYWGQGTQVTVSS | low polyreactivity
QVQLVESGGGLVQAGGSLRISCAASGSIFLYYAMGWYRQPPGKEREFVAAISYSGGRTYYADSVKGRFTISRDNAKNTVYLQMNSLKPEDTAVYYCNALYRLGVSGLTQSRYGYWGQGTQVTVSS | high polyreactivity
QVQLVESGGGLVQAGGSLRISCAASGSIFRGNAMGWYRQAPGKERELVAAISKSGGSTYYADSVKGRITISRDNAKNTVYLQMNSLKPEDTAVYYCAARTTYLYGMYYWGQGTQVTVSS | low polyreactivity
QVQLVESGGGLVQAGGSLRISCAASGSIFRQYAMGLYRQAPGKEWELVAAITYSGGNTYYADSVKGRFTISRDNAKNTVYLQMNSLKPEDTAVYYCAADYGSRSWEYNYWGQGTQVTVSS | low polyreactivity
QVQLVESGGGLVQAGGSLRISCAASGSIFRVYAMGWYRPAPGKERELVASITLSGGSTYYADSVKGRVTISRDNAKNTVYLQMNSLKPDDTAVYSCAARKRYRNPNTSRGMDYWGQGTQVNVSS | high polyreactivity
QVQLVESGGGLVQAGGSLRISCAASGSIFRYYAMGWYRQAPGKEREFVDSITYRGGRTYYADSVKGRFTISRDNAKNTVYLQMNSLKPEDTAVYYCAARYRVRYYERDYWGQGTQVTVSS | high polyreactivity
QVQLVESGGGLVQAGGSLRISCAASGSIFTAYAMGWYRQAPGKERELVAAITQSAGSTYADSVKGRFTISRDNAKNTVYLPMHSLNQEDTAVSYCAARYRYPYYARYGYWGQGTQVTVSS | high polyreactivity
